According to paper PMC9973331, “DNA Methylation and RNA-DNA Hybrids Regulate the Single-Molecule Localization of a DNA Methyltransferase on the Bacterial Nucleoid”:

How the values were obtained:
[1] = biological target: T1, DnmA[6AA*] (Bacillus subtilis, UniProt O31504 1-879, K470A;M620A;N748A;L780A;K781A;D783A); test: EMSA; EMSA: 5x buffer 500 mM Tris-HCl pH 8, 1.25 M NaCl, 10% glycerol (1x: 100 mM Tris, 250 mM NaCl, 2% glycerol), 5 nM probe, 30 min at 25 C; 6% native PAGE in 1x TBE on ice; conditions: protein: recombinant; tags: His-SUMO tag (pE-SUMO) removed by SUMO protease; label: 5' IRDye700 on strand 1; 5' IRDye800 on strand 2; blunt
T1 sequence: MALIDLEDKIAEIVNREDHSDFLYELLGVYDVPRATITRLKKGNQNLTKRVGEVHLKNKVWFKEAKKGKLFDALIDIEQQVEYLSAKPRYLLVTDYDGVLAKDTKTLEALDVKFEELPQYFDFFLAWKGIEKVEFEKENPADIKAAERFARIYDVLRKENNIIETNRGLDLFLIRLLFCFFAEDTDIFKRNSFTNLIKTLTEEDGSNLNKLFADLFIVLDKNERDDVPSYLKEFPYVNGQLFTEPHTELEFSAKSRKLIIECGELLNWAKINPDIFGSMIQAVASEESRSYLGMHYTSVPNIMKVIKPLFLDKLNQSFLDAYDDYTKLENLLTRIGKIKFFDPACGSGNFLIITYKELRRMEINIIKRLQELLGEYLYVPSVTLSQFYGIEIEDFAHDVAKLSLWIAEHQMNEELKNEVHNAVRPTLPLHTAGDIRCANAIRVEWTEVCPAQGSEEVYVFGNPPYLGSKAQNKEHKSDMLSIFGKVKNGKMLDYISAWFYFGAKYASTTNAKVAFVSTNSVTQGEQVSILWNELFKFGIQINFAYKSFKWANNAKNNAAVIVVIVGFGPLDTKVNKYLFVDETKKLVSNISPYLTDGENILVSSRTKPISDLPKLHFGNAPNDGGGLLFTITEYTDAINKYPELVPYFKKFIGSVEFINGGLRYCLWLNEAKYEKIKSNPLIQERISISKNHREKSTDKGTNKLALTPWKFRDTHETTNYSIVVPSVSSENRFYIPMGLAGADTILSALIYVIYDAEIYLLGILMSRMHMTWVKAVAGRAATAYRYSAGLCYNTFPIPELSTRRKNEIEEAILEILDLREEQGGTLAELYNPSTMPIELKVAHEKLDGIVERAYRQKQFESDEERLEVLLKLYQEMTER

[2] = biological target: T2, DnmA[Y465A] (Bacillus subtilis, UniProt O31504 1-879, Y465A); test: as above; conditions: protein: recombinant; tags: His-SUMO tag (pE-SUMO) removed by SUMO protease; label: 5' IRDye700 on strand 1; 5' IRDye800 on strand 2; blunt
T2 sequence: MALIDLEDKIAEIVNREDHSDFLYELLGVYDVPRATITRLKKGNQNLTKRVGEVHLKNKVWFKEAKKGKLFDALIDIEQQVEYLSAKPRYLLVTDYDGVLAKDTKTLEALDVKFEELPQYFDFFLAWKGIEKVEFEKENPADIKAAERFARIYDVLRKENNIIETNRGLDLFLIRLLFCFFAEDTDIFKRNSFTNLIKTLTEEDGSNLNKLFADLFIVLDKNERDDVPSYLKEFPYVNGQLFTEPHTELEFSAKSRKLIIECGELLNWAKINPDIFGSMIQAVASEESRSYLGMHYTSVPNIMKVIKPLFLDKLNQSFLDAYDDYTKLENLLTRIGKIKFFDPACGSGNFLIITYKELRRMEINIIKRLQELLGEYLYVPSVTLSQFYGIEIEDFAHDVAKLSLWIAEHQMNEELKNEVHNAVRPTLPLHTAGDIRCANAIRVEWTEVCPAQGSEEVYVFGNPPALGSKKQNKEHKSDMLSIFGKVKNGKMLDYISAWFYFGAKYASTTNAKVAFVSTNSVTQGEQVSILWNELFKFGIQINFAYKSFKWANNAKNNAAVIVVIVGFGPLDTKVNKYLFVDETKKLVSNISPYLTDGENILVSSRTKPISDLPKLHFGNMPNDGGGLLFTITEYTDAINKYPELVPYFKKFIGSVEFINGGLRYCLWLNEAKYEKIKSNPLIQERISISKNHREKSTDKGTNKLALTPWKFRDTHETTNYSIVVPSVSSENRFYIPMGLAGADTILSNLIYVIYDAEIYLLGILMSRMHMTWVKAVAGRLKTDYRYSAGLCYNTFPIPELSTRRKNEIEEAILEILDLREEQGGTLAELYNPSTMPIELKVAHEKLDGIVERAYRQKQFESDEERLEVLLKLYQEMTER

B1: unmethylated dsDNA (oTMN67/oTMN68) (dsDNA)
DNA 1: CAAAACAGGATATGAAATAGTATTGGACGAGAGCTTTTTGGTGGCTTATACTATAG
DNA 2: CTATAGTATAAGCCACCAAAAAGCTCTCGTCCAATACTATTTCATATCCTGTTTTG
apparent K (half saturation) [1]: 458 ± 185 nM | apparent K (half saturation) [2]: 164 ± 26.8 nM
